Blank lines part the entries; values can stand above or below the binder they belong to.
Tests used:
[1] = target: T1, FcγRIIIa extracellular domain with C-terminal His tag (human, UniProt P08637 17-208); assay: SPR (Biacore); He/Con_3a divided by He/Con_2b (FcγRIIb)
T1 construct: extracellular domain; also called FcgRIIIa; 3a; not shown: His tag at the C terminus

[2] = target: T1, FcγRIIIa extracellular domain with …; assay: SPR (Biacore), FcγR as analyte over captured antibody; GpH7-A5/GpH7-B3/GpL16-k0 = 100
Description: (§1) The heterodimerized antibodies He Abs in which one of the H chains was introduced with an alteration were assayed for their binding activities to each activating FcγR and inhibitory FcγR according to the method described in Example 4. […] The activating FcγRs in FIGS. 26, 27, 28, and 29 are FcγRIa, FcγRIIa (R), FcγRIIa (H), and FcγRIIIa, respectively.
(§2) Analysis of interaction between objective antibody and the FcγR was carried out using Biacore T100 (GE Healthcare). HBS-EP+ (GE Healthcare) was used as the running buffer, and the measurement temperature was set to 25° C. Chips produced by immobilizing the antigen peptide by the amine coupling method to a Series S Sencor Chip CM5 (GE Healthcare), or alternatively, chips produced by allowing preliminarily biotinylated antigen peptides to interact with and immobilize onto a Series S Sensor Chip SA (certified) (GE Healthcare) were used. Antibodies of interest were captured onto an antigen peptide-immobilized chip, and allowed to interact to each FcγR diluted with running buffer. To regenerate and repeatedly use the chip, the antibodies captured on the chip were washed off by reacting 10 mM glycine-HCl, pH 1.5.

[3] = target: T2, FcγRIIb extracellular domain with C-terminal His tag (human, UniProt P31994 43-217); assay: as above
T2 construct: extracellular domain; also called FcgRIIb; 2b; not shown: His tag at the C terminus
T2 sequence (looked up): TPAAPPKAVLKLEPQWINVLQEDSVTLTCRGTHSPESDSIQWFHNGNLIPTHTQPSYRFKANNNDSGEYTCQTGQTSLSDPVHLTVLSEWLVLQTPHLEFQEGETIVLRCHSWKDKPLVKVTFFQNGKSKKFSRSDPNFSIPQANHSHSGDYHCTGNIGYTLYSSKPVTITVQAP
Description: as §1, §2

T1 sequence (P08637 17-208): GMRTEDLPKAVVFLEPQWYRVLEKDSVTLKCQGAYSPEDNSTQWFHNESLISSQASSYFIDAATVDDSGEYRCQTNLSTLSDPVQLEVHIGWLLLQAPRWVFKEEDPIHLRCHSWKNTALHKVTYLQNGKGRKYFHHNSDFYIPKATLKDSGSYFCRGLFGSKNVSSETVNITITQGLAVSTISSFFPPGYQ

He_3a/2b (IIIa/IIb) [1]: 0.27 ratio | He/Con_3a [2]: 30.3 % of control | He/Con_2b [3]: 111 % of control
B5: GpH7-A5/GpH7-B3 variant N325_03V/GpL16-k0 (antibody, human IgG1, kappa)
heavy 1: not shown
heavy 2: not shown
light: DIVMTQSPLSLPVTPGEPASISCQASESLVHSNRNTYLHWYLQKPGQSPQLLIYKVSNRFSGVPDRFSGSGSGTDFTLKISRVEAEDVGVYYCSQNTHVPPTFGQGTKVEIERTVAAPSVFIFPPSDEQLKSGTASVVCLLNNFYPREAKVQWKVDNALQSGNSQESVTEQDSKDSTYSLSSTLTLSKADYEKHKVYACEVTHQGLSSPVTKSFNRGEC
notes: Heterodimerized IgG1 antibody; alteration in the GpH7-B3 chain only; also called He Ab

He_3a/2b (IIIa/IIb) [1]: 0.14 ratio | He/Con_3a [2]: 20.7 % of control | He/Con_2b [3]: 143 % of control
B6: GpH7-A5/GpH7-B3 variant N325_04F/GpL16-k0 (antibody, human IgG1, kappa)
heavy 1: not shown
heavy 2: not shown
light: DIVMTQSPLSLPVTPGEPASISCQASESLVHSNRNTYLHWYLQKPGQSPQLLIYKVSNRFSGVPDRFSGSGSGTDFTLKISRVEAEDVGVYYCSQNTHVPPTFGQGTKVEIERTVAAPSVFIFPPSDEQLKSGTASVVCLLNNFYPREAKVQWKVDNALQSGNSQESVTEQDSKDSTYSLSSTLTLSKADYEKHKVYACEVTHQGLSSPVTKSFNRGEC
notes: as for B5

He_3a/2b (IIIa/IIb) [1]: 0.39 ratio | He/Con_3a [2]: 10.2 % of control | He/Con_2b [3]: 26 % of control
B7: GpH7-A5/GpH7-B3 variant N325_05P/GpL16-k0 (antibody, human IgG1, kappa)
heavy 1: not shown
heavy 2: not shown
light: DIVMTQSPLSLPVTPGEPASISCQASESLVHSNRNTYLHWYLQKPGQSPQLLIYKVSNRFSGVPDRFSGSGSGTDFTLKISRVEAEDVGVYYCSQNTHVPPTFGQGTKVEIERTVAAPSVFIFPPSDEQLKSGTASVVCLLNNFYPREAKVQWKVDNALQSGNSQESVTEQDSKDSTYSLSSTLTLSKADYEKHKVYACEVTHQGLSSPVTKSFNRGEC
notes: as for B5

He_3a/2b (IIIa/IIb) [1]: 0.14 ratio | He/Con_3a [2]: 31.4 % of control | He/Con_2b [3]: 217 % of control
B8: GpH7-A5/GpH7-B3 variant N325_06M/GpL16-k0 (antibody, human IgG1, kappa)
heavy 1: not shown
heavy 2: not shown
light: DIVMTQSPLSLPVTPGEPASISCQASESLVHSNRNTYLHWYLQKPGQSPQLLIYKVSNRFSGVPDRFSGSGSGTDFTLKISRVEAEDVGVYYCSQNTHVPPTFGQGTKVEIERTVAAPSVFIFPPSDEQLKSGTASVVCLLNNFYPREAKVQWKVDNALQSGNSQESVTEQDSKDSTYSLSSTLTLSKADYEKHKVYACEVTHQGLSSPVTKSFNRGEC
notes: as for B5

The remaining lines, values behind:

B1: GpH7-A5/GpH7-B3 variant L328_03V/GpL16-k0 (antibody, human IgG1, kappa)
heavy 1: not shown
heavy 2: not shown
light: DIVMTQSPLSLPVTPGEPASISCQASESLVHSNRNTYLHWYLQKPGQSPQLLIYKVSNRFSGVPDRFSGSGSGTDFTLKISRVEAEDVGVYYCSQNTHVPPTFGQGTKVEIERTVAAPSVFIFPPSDEQLKSGTASVVCLLNNFYPREAKVQWKVDNALQSGNSQESVTEQDSKDSTYSLSSTLTLSKADYEKHKVYACEVTHQGLSSPVTKSFNRGEC
notes: as for B5
He_3a/2b (IIIa/IIb) [1]: 0.63 ratio | He/Con_3a [2]: 78.7 % of control | He/Con_2b [3]: 126 % of control

B2: GpH7-A5/GpH7-B3 variant L328_04F/GpL16-k0 (antibody, human IgG1, kappa)
heavy 1: not shown
heavy 2: not shown
light: DIVMTQSPLSLPVTPGEPASISCQASESLVHSNRNTYLHWYLQKPGQSPQLLIYKVSNRFSGVPDRFSGSGSGTDFTLKISRVEAEDVGVYYCSQNTHVPPTFGQGTKVEIERTVAAPSVFIFPPSDEQLKSGTASVVCLLNNFYPREAKVQWKVDNALQSGNSQESVTEQDSKDSTYSLSSTLTLSKADYEKHKVYACEVTHQGLSSPVTKSFNRGEC
notes: as for B5
He_3a/2b (IIIa/IIb) [1]: 0.36 ratio | He/Con_3a [2]: 79.3 % of control | He/Con_2b [3]: 219 % of control

B3: GpH7-A5/GpH7-B3 variant L328_05P/GpL16-k0 (antibody, human IgG1, kappa)
heavy 1: not shown
heavy 2: not shown
light: DIVMTQSPLSLPVTPGEPASISCQASESLVHSNRNTYLHWYLQKPGQSPQLLIYKVSNRFSGVPDRFSGSGSGTDFTLKISRVEAEDVGVYYCSQNTHVPPTFGQGTKVEIERTVAAPSVFIFPPSDEQLKSGTASVVCLLNNFYPREAKVQWKVDNALQSGNSQESVTEQDSKDSTYSLSSTLTLSKADYEKHKVYACEVTHQGLSSPVTKSFNRGEC
notes: as for B5
He_3a/2b (IIIa/IIb) [1]: 0.62 ratio | He/Con_3a [2]: 40.5 % of control | He/Con_2b [3]: 65.1 % of control

B4: GpH7-A5/GpH7-B3 variant N325_02A/GpL16-k0 (antibody, human IgG1, kappa)
heavy 1: not shown
heavy 2: not shown
light: DIVMTQSPLSLPVTPGEPASISCQASESLVHSNRNTYLHWYLQKPGQSPQLLIYKVSNRFSGVPDRFSGSGSGTDFTLKISRVEAEDVGVYYCSQNTHVPPTFGQGTKVEIERTVAAPSVFIFPPSDEQLKSGTASVVCLLNNFYPREAKVQWKVDNALQSGNSQESVTEQDSKDSTYSLSSTLTLSKADYEKHKVYACEVTHQGLSSPVTKSFNRGEC
notes: as for B5
He_3a/2b (IIIa/IIb) [1]: 0.47 ratio | He/Con_3a [2]: 30.5 % of control | He/Con_2b [3]: 64.4 % of control

Source: patent publication US20150344570A1 (published 2015)
